Measurements taken from patent US20150218534A1, “MODIFIED DNA POLYMERASE” (TOYOBO CO., LTD., priority 2012, published 2015).
Changes are numbered by the printed parent chain. Names and notes keep the numbering of the source.

B1: KOD V93Q: modified KOD DNA polymerase with V93Q (protein, listed as Thermococcus kodakaraensis)
chain: MILDTDYITEDGKPVIRIFKKENGEFKIEYDRTFEPYFYALLKDDSAIEEVKKITAERHGTVVTVKRVEKVQKKFLGRPVEVWKLYFTHPQDQPAIRDKIREHPAVIDIYEYDIPFAKRYLIDKGLVPMEGDEELKMLAFDIETLYHEGEEFAEGPILMISYADEEGARVITWKNVDLPYVDVVSTEREMIKRFLRVVKEKDPDVLITYNGDNFDFAYLKKRCEKLGINFALGRDGSEPKIQRMGDRFAVEVKGRIHFDLYPVIRRTINLPTYTLEAVYEAVFGQPKEKVYAEEITTAWETGENLERVARYSMEDAKVTYELGKEFLPMEAQLSRLIGQSLWDVSRSSTGNLVEWFLLRKAYERNELAPNKPDEKELARRRQSYEGGYVKEPERGLWENIVYLDFRSLYPSIIITHNVSPDTLNREGCKEYDVAPQVGHRFCKDFPGFIPSLLGDLLEERQKIKKKMKATIDPIERKLLDYRQRAIKILANSYYGYYGYARARWYCKECAESVTAWGREYITMTIKEIEEKYGFKVIYSDTDGFFATIPGADAETVKKKAMEFLKYINAKLPGALELEYEGFYKRGFFVTKKKYAVIDEEGKITTRGLEIVRRDWSEIAKETQARVLEALLKDGDVEKAVRIVKEVTEKLSKYEVPPEKLVIHEQITRDLKDYKATGPHVAVAKRLAARGVKIRPGTVISYIVLKGSGRIGDRAIPFDEFDPTKHKYDAEYYIENQVLPAVERILRAFGYRKEDLRYQKTRQVGLSAWLKPKGT
B2: KOD V93K: modified KOD DNA polymerase with V93K (protein, listed as Thermococcus kodakaraensis)
chain: B1 chain with Q93K
B3: KOD V93R: modified KOD DNA polymerase with V93R (protein, listed as Thermococcus kodakaraensis)
chain: B1 chain with Q93R
B4: KOD P36H/V93K: modified KOD DNA polymerase with P36H and V93K (protein, listed as Thermococcus kodakaraensis)
chain: B1 chain with P36H, Q93K

These molecules were tested on 1.3 kbp, 2.8 kbp, and 3.6 kbp of human β-globin (assay: Amplification of long-chain DNA in PCR using dUTP). Conditions: dTTP replaced by dUTP, 35 cycles.
Assay type: biochemical
Set-up: key to Results of PCR in the presence of dUTP 1.3 kbp / Results of PCR in the presence of dUTP 2.8 kbp / Results of PCR in the presence of dUTP 3.6 kbp: A: Amplified; B: Amplified (faint band); C: Not amplified
How it was run: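 Enzymes (1 U, premixed with KOD antibody) amplified 1.3, 2.8 and 3.6 kbp β-globin from 10 ng human genomic DNA with 2 mM dNTPs having dUTP in place of dTTP, 1.5 mM MgSO4, 35 cycles (98° C. 10 s, 65° C. 30 s, 68° C. ~1 min/kbp). Taq control: 2.5 U, 94° C. denaturation. Yield judged by ethidium-stained agarose gel.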

Molecule	Results of PCR in the presence of dUTP 1.3 kbp	Results of PCR in the presence of dUTP 2.8 kbp	Results of PCR in the presence of dUTP 3.6 kbp
B1	C	C	C
B2	B	B	B
B3	B	B	B
B4	A	A	C

The molecules below were run on 482 bp of human β-globin (assay: PCR amplification of 482 bp of human β-globin with dUTP in place of dTTP). Conditions: dTTP replaced by dUTP, 35 cycles.
Assay type: biochemical
Set-up: key to Results of PCR in the presence of dUTP 481 bp: A: Amplified; B: Amplified (faint band); C: Not amplified
How it was run: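 482 bp human β-globin amplified from 10 ng human genomic DNA with 1 U enzyme premixed with KOD antibody, using 0.2 mM dNTPs with either dTTP or dUTP, 1.5 mM MgSO4, 15 pmol primers. Cycling: 94 °C 2 min, then 35 cycles of 98 °C 10 s, 68 °C 1 min; products analysed by MultiNA DNA-1000 microchip electrophoresis.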

Molecule	Results of PCR in the presence of dUTP 481 bp
B1	A
B2	A
B3	A
B4	A
